Laboratory results taken from patent US6989364B1, “Methods for treating cardiac hypertrophy by administering IFN-γ” (Genentech, Inc., priority 1998, dated 2006).
Marks after values point to notes of the source that are not given here.

Key:
[1] = system: male Sprague/Dawley (SD) rats; assay: Cardiac hypertrophy induced by fluprostenol in vivo: body and organ weights; parameters: species or system rat
Source text: This pharmacological model tests the ability of IFN-γ to inhibit cardiac hypertrophy induced in rats (e.g. male Wistar or Sprague-Dawley) by subcutaneous injection of fluprostenol (an agonist analog of PGF2α). It is known that rats with pathologic cardiac hypertrophy induced by myocardial infarction have chronically elevated levels of extractable PGF2α in their myocardium. Lai et al, Am. J. Physiol. (Heart Circ. Physiol.) 271:H2197–H2208 (1996). Accordingly, factors that can inhibit the effects of fluprostenol on myocardial growth in vivo are potentially useful for treating cardiac hypertrophy. The effects of IFN-γ on cardiac hypertrophy are determined by measuring the weight of heart, ventricles, and left ventricle (normalized by body weight) relative to fluprostenol-treated rats not receiving IFN-γ. A detailed description of this assay is provided in the examples.
Animals All experimental procedures conformed to the guiding principles of the American Physiology Society, and were approved by Genentech's Institutional Animal Care and Use Committee. The animals used in this study were male Sprague/Dawley (SD) rats (8 weeks of age, Charles River Breeding Laboratories, Inc.). The animals were acclimated to the facility for at least one week before experiments, fed a pelleted rat chow and water ad libitum, and housed in a light and temperature controlled room.
Administration of fluprostenol and/or IFN-γ Rats received subcutaneous injection of fluprostenol (Cayman Chemical, Ann Arbor, Mich.) at 0.15 mg/kg, recombinant mouse IFN-γ (Genentech, Inc., South San Francisco, Calif.) at 0.08 mg/kg, combination of fluprostenol and IFN-γ, or saline vehicle, twice a day for 14 days. In the IFN-γ and fluprostenol+IFN-γ groups, animals were pretreated with IFN-γ for one day. Body weight was measured before and after treatment. A previous study has shown that the dose of fluprostenol used here is the lowest dose which produces a significant cardiac hypertrophy in rats. Lai et al., supra.
Measurement of organ weights Under anesthesia with ketamine/xylazine, the heart, kidney, and spleen were removed, dissected and weighed. The left ventricle was stored at […] for evaluation of gene expression.
Statistical analyisis Results are expressed as mean±SEM. One way analysis of variance (ANOVA) was performed to assess differences in parameters between groups. Significant differences were then subjected to post hoc analysis using Newman-Keuls method; P<0.05 was considered significant.

[2] = system: rats with pressure overload; assay: Arterial pressure and heart rate in rats with pressure overload; type: in vivo, rat
Source text: FIGS. 9A–9C Effects of IFN-γ on systolic arterial pressure, mean arterial pressure, and diastolic arterial pressure in rats with pressure overload. The number in parenthesis is the number of animals in each group. **P<0.01, compared to the sham group. Sham: sham-operated rats; Banded: aortic-banded rats; IFN: IFN-γ, SAP: systolic arterial pressure; MAP: mean arterial pressure; DAP: diastolic arterial pressure.
Experimental protocol in rats with pressure overload The rats with aortic banding randomly received subcutaneous injection of IFN-γ at 0.08 mg/k twice a day for one day before surgery and for 14 days after surgery. Sham animals were not treated. Thirteen days after treatment, a catheter was implanted into the right carotid artery under anesthesia as indicated above. One day after implantation, arterial pressure and HR were measured in conscious rats. The heart and other organs including the liver, kidney, and spleen were removed, weighed, and fixed in 10% buffered formalin for pathological studies. The left ventricle was quickly dissected and frozen with liquid nitrogen in some animals and stored at −80° C. for assessment of gene expression.

[3] = IFN-γ 0.08 mg/kg s.c. twice a day, rats
[4] = s.c. twice a day for 14 days, fluprostenol 0.15 mg/kg, IFN-γ 0.08 mg/kg, mean ± SEM

IFN-γ: recombinant mouse IFN-γ (Genentech, Inc., South San Francisco, Calif., or Genzyme, Cambridge, Mass.)
Ratio of heart, ventricular, and left ventricular weights to body weight (FIG. 4) ([1]; 14 days, fluprostenol and IFN-γ alone vs vehicle, fluprostenol+IFN-γ vs fluprostenol group): did not significantly alter
Effect on body weight, pilot study [1, 3]: little effects on body weight
Effect on fluprostenol-induced cardiac hypertrophy, pilot study [1, 3]: inhibited fluprostenol-induced cardiac hypertrophy
BWO, basal levels of body weight ([1]; before treatment, mean ± SEM): 292.5 ± 3.2 g
BW, body weight post treatment [1, 4]: 380.8 ± 6.1 g
HW, heart weight [1, 4]: .956 ± .029 g
KW, kidney weight [1, 4]: 1.327 ± .035 g
KW/BW, kidney weight to body weight [1, 4]: 3.483 ± .069 g/kg
LVW, left ventricular weight [1, 4]: .696 ± .023 g
SW, spleen weight [1, 4]: .924 ± .068 g
SW/BW, spleen weight to body weight [1, 4]: 2.415 ± .149 g/kg
VW, ventricular weight [1, 4]: .914 ± .029 g
ΔBW, BW-BWO [1, 4]: 88.3 ± 5.0 g
Incremental increase in arterial pressure (MAP, systolic, diastolic) in banded rats, IFN-γ vs vehicle ([2]; FIG. 9): not different
HR, heart rate ([2]; pressure overload, conscious rats, IFN-γ 0.08 mg/kg s.c. twice a day, mean ± SEM): 418 ± 19* bpm
